# From publication PMC8102920
# Tested on: eIF3 complex (purified, 13 subunits a-m) (rabbit (reticulocyte lysate))
# Assay: EMSA
# Settings: EMSA: 25 mM Tris-HCl pH 7.5, 5 mM Mg(OAc)2, 70 mM KCl, 0.1 mM CaCl2, 0.1 mg/ml BSA, 2 mM TCEP, 30 min at 25 C, 0.7% agarose in TBE, 75 mM KCl, 4 C; for binding signal (% RNA shifted at high eIF3): high eIF3 (4-8 uM lanes quantified)
Substance,binding signal (% RNA shifted at high eIF3),Kd
H4 137-241 (4E-SE),14,
H4 241-375 (eIF3-BS),39,
H4 1-137 (TWJ),28,
H4 FL mRNA (1-375),,4 µM
